Data published in article PMC7065885.

Experiments:
[1] = biological target: murine CD11b I-domain (mouse); assay: SPR
[2] = biological target: human CD11b I-domain (human); assay: SPR

murine CD11b I-domain (mouse), sequence (P05555 17-1153): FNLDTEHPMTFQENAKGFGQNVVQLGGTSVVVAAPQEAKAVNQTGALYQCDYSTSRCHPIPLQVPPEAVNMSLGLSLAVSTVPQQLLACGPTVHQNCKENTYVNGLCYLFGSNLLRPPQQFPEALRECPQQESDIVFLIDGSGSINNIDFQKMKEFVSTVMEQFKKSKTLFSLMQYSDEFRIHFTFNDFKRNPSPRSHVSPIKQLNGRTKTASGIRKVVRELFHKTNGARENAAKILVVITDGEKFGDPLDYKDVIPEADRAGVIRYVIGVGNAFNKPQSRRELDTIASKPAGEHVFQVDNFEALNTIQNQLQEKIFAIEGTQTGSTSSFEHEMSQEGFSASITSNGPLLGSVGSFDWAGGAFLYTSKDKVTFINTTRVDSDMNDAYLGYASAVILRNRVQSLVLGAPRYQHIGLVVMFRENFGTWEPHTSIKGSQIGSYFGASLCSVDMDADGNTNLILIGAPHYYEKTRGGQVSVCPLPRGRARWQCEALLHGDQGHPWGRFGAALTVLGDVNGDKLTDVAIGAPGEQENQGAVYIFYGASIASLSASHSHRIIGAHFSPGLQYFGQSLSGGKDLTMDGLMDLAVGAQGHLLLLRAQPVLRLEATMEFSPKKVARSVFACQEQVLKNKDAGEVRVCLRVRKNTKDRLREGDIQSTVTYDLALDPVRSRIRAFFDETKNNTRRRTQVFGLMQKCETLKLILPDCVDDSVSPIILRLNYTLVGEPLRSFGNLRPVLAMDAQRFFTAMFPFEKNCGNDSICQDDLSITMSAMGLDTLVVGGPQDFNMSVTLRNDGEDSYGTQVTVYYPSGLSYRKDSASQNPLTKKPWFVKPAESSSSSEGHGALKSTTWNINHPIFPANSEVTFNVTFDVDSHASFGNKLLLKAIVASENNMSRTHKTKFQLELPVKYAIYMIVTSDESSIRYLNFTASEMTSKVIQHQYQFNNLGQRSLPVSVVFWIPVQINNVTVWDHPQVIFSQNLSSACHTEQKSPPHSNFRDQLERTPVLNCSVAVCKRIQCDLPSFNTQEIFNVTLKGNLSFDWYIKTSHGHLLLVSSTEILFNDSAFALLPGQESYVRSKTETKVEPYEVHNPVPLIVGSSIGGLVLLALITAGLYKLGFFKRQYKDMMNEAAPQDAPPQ

Substance: LukAB (complex)
- Kd [1]: 247 µM
- Kd [2]: 0.0393 µM
